What all share (conditions): remark: other sources report otherwise
The target in test [1] is T1, CHIP (carboxyl terminus of heat shock 70-interacting protein), wild type, His-tagged recombinant (human), Q9UNE7.
T1 chain: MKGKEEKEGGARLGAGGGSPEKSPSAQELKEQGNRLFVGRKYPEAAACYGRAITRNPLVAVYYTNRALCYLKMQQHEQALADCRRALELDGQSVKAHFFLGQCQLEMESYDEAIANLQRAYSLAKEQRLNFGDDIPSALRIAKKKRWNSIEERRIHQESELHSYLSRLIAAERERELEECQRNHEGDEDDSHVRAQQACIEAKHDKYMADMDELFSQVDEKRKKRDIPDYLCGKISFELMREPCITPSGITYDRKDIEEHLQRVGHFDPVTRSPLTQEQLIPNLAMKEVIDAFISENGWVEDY
The test can be described thus: SEC-MALS.

In test [2] the target is T2, myc-CHIP-K30A (pcDNA3-mycCHIP-K30A) (human), Q9UNE7.
T2 chain: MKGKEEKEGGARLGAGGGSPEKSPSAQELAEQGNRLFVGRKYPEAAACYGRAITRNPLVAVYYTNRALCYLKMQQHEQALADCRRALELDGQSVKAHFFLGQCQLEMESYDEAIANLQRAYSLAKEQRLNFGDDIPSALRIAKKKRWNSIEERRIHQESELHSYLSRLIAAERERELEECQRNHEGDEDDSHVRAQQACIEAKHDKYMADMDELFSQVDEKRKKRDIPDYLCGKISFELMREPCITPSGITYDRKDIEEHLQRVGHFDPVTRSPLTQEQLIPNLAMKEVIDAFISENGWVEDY
The test can be described thus: native gel or EMSA. A general note: Mobility shift assays separate free from complexed probe on a gel.

Test [3] deals with T3, CHIP-K30A, His-tagged recombinant (human), Q9UNE7.
T3 chain: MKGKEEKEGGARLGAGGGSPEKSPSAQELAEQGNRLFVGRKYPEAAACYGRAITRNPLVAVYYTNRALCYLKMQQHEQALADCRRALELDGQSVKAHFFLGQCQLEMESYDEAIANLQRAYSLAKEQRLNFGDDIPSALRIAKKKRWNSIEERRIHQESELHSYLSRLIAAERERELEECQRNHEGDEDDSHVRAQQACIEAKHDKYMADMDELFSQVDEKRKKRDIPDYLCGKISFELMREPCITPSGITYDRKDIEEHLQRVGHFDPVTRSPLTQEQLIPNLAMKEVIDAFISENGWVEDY
In words: SEC-MALS. In general terms: Size exclusion chromatography separates by hydrodynamic size, large species first.

Test [4] deals with T4, myc-CHIP wild type (pcDNA3-mycCHIP) (human), Q9UNE7.
T4 chain: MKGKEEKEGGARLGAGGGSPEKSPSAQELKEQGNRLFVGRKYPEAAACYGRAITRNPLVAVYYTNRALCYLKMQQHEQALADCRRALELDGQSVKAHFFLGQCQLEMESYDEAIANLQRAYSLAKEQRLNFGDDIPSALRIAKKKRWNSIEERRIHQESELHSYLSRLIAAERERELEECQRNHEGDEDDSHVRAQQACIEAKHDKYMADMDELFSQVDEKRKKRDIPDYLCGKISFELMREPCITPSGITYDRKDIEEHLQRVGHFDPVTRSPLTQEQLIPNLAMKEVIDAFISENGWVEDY
In words: native gel or EMSA.

As usually defined, the stoichiometry N is a count of units in the complex or per binding partner.

B1: CHIP (carboxyl terminus of heat shock 70-interacting protein), wild type, His-tagged recombinant, Q9UNE7 1-303 (natural protein)
chain: MKGKEEKEGGARLGAGGGSPEKSPSAQELKEQGNRLFVGRKYPEAAACYGRAITRNPLVAVYYTNRALCYLKMQQHEQALADCRRALELDGQSVKAHFFLGQCQLEMESYDEAIANLQRAYSLAKEQRLNFGDDIPSALRIAKKKRWNSIEERRIHQESELHSYLSRLIAAERERELEECQRNHEGDEDDSHVRAQQACIEAKHDKYMADMDELFSQVDEKRKKRDIPDYLCGKISFELMREPCITPSGITYDRKDIEEHLQRVGHFDPVTRSPLTQEQLIPNLAMKEVIDAFISENGWVEDY
For B1, in test [1], the stoichiometry N amounted to 2.

B2: myc-CHIP-K30A (pcDNA3-mycCHIP-K30A), Q9UNE7 1-303 (natural protein)
chain: MKGKEEKEGGARLGAGGGSPEKSPSAQELAEQGNRLFVGRKYPEAAACYGRAITRNPLVAVYYTNRALCYLKMQQHEQALADCRRALELDGQSVKAHFFLGQCQLEMESYDEAIANLQRAYSLAKEQRLNFGDDIPSALRIAKKKRWNSIEERRIHQESELHSYLSRLIAAERERELEECQRNHEGDEDDSHVRAQQACIEAKHDKYMADMDELFSQVDEKRKKRDIPDYLCGKISFELMREPCITPSGITYDRKDIEEHLQRVGHFDPVTRSPLTQEQLIPNLAMKEVIDAFISENGWVEDY
In the case of B2, the stoichiometry N in test [2] was 2.

B3: CHIP-K30A, His-tagged recombinant, Q9UNE7 1-303 (natural protein)
chain: MKGKEEKEGGARLGAGGGSPEKSPSAQELAEQGNRLFVGRKYPEAAACYGRAITRNPLVAVYYTNRALCYLKMQQHEQALADCRRALELDGQSVKAHFFLGQCQLEMESYDEAIANLQRAYSLAKEQRLNFGDDIPSALRIAKKKRWNSIEERRIHQESELHSYLSRLIAAERERELEECQRNHEGDEDDSHVRAQQACIEAKHDKYMADMDELFSQVDEKRKKRDIPDYLCGKISFELMREPCITPSGITYDRKDIEEHLQRVGHFDPVTRSPLTQEQLIPNLAMKEVIDAFISENGWVEDY
For the molecule B3, the stoichiometry N in test [3] came out at 2.

B4: myc-CHIP wild type (pcDNA3-mycCHIP), Q9UNE7 1-303 (natural protein)
chain: MKGKEEKEGGARLGAGGGSPEKSPSAQELKEQGNRLFVGRKYPEAAACYGRAITRNPLVAVYYTNRALCYLKMQQHEQALADCRRALELDGQSVKAHFFLGQCQLEMESYDEAIANLQRAYSLAKEQRLNFGDDIPSALRIAKKKRWNSIEERRIHQESELHSYLSRLIAAERERELEECQRNHEGDEDDSHVRAQQACIEAKHDKYMADMDELFSQVDEKRKKRDIPDYLCGKISFELMREPCITPSGITYDRKDIEEHLQRVGHFDPVTRSPLTQEQLIPNLAMKEVIDAFISENGWVEDY
For B4, in test [4], the stoichiometry N was 2.

For the origin of these results see publication doi:10.1101/283192.
